# Source: article PMC8191314 (The Journal of Biological Chemistry, 2021)
# B1: MRCKβ in extracts from HeLa cells (enzyme, UniProt Q9Y5S2 1-1711, looked up)
# chain: MSAKVRLKKLEQLLLDGPWRNESALSVETLLDVLVCLYTECSHSALRRDKYVAEFLEWAKPFTQLVKEMQLHREDFEIIKVIGRGAFGEVAVVKMKNTERIYAMKILNKWEMLKRAETACFREERDVLVNGDCQWITALHYAFQDENHLYLVMDYYVGGDLLTLLSKFEDKLPEDMARFYIGEMVLAIDSIHQLHYVHRDIKPDNVLLDVNGHIRLADFGSCLKMNDDGTVQSSVAVGTPDYISPEILQAMEDGMGKYGPECDWWSLGVCMYEMLYGETPFYAESLVETYGKIMNHEERFQFPSHVTDVSEEAKDLIQRLICSRERRLGQNGIEDFKKHAFFEGLNWENIRNLEAPYIPDVSSPSDTSNFDVDDDVLRNTEILPPGSHTGFSGLHLPFIGFTFTTESCFSDRGSLKSIMQSNTLTKDEDVQRDLEHSLQMEAYERRIRRLEQEKLELSRKLQESTQTVQSLHGSSRALSNSNRDKEIKKLNEEIERLKNKIADSNRLERQLEDTVALRQEREDSTQRLRGLEKQHRVVRQEKEELHKQLVEASERLKSQAKELKDAHQQRKLALQEFSELNERMAELRAQKQKVSRQLRDKEEEMEVATQKVDAMRQEMRRAEKLRKELEAQLDDAVAEASKERKLREHSENFCKQMESELEALKVKQGGRGAGATLEHQQEISKIKSELEKKVLFYEEELVRREASHVLEVKNVKKEVHDSESHQLALQKEILMLKDKLEKSKRERHNEMEEAVGTIKDKYERERAMLFDENKKLTAENEKLCSFVDKLTAQNRQLEDELQDLAAKKESVAHWEAQIAEIIQWVSDEKDARGYLQALASKMTEELEALRSSSLGSRTLDPLWKVRRSQKLDMSARLELQSALEAEIRAKQLVQEELRKVKDANLTLESKLKDSEAKNRELLEEMEILKKKMEEKFRADTGLKLPDFQDSIFEYFNTAPLAHDLTFRTSSASEQETQAPKPEASPSMSVAASEQQEDMARPPQRPSAVPLPTTQALALAGPKPKAHQFSIKSFSSPTQCSHCTSLMVGLIRQGYACEVCSFACHVSCKDGAPQVCPIPPEQSKRPLGVDVQRGIGTAYKGHVKVPKPTGVKKGWQRAYAVVCDCKLFLYDLPEGKSTQPGVIASQVLDLRDDEFSVSSVLASDVIHATRRDIPCIFRVTASLLGAPSKTSSLLILTENENEKRKWVGILEGLQSILHKNRLRNQVVHVPLEAYDSSLPLIKAILTAAIVDADRIAVGLEEGLYVIEVTRDVIVRAADCKKVHQIELAPREKIVILLCGRNHHVHLYPWSSLDGAEGSFDIKLPETKGCQLMATATLKRNSGTCLFVAVKRLILCYEIQRTKPFHRKFNEIVAPGSVQCLAVLRDRLCVGYPSGFCLLSIQGDGQPLNLVNPNDPSLAFLSQQSFDALCAVELESEEYLLCFSHMGLYVDPQGRRARAQELMWPAAPVACSCSPTHVTVYSEYGVDVFDVRTMEWVQTIGLRRIRPLNSEGTLNLLNCEPPRLIYFKSKFSGAVLNVPDTSDNSKKQMLRTRSKRRFVFKVPEEERLQQRREMLRDPELRSKMISNPTNFNHVAHMGPGDGMQVLMDLPLSAVPPSQEERPGPAPTNLARQPPSRNKPYISWPSSGGSEPSVTVPLRSMSDPDQDFDKEPDSDSTKHSTPSNSSNPSGPPSPNSPHRSQLPLEGLEQPACDT
# Target: the molecule itself
# Experiment: cross-linking
protein,measurement,value
B1,stoichiometry N,2
